Results on nine molecules are retold here after US10508143 (ALETA BIOTHERAPEUTICS, dated 2019).

Assay [1] deals with T1, CD20 on stable transfectant line 293-CD20 (UniProt P11836 1-297).
T1 construct: whole, on cells; also called CD20 expressing 293 cells
T1 sequence (looked up): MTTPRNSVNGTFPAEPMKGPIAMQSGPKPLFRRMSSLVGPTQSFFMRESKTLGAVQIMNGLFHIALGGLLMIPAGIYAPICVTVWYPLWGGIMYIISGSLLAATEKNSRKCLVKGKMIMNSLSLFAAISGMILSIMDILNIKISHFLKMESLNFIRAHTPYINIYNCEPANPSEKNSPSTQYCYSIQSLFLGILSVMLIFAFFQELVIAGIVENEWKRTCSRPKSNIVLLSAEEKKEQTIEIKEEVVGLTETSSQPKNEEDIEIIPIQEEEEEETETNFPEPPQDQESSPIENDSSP
Briefly: flow cytometry on 293-CD20 cells, 200 µl fusion protein, FMC63-PE. In general terms: A flow cytometer gives signals particle by particle.

In assay [2] the target is T1, CD20 on stable transfectant line …. Briefly: flow cytometry on 293-CD20 cells, FMC63-PE.
The target of assay [3] is T2, Human BCMA Protein, Fc Tag (R&D Systems, Cat#193-BC-050) (human, UniProt Q02223 1-54).
T2 construct: Bought; also called Human BCMA-Fc; not shown: Fc tag of the bought protein
T2 sequence (looked up): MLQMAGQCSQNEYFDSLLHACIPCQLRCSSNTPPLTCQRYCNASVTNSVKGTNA
Briefly: ELISA, plate-bound BCMA-Fc, anti-His-HRP. (In an ELISA, binding on a coated surface is turned into a signal by an enzyme label.)

For assay [4], the target named is T1, CD20 on stable transfectant line …. Briefly: flow cytometry on 293-CD20 cells, anti-His-PE or FMC63-PE.
The target of assay [5] is T3, Human Her2/ErbB2 Protein, Fc Tag (ACRO Biosystems, Cat# HE2-H5253) (human, UniProt P04626 23-652).
T3 construct: Bought; also called Her2-Fc; HER2-hFc; not shown: Fc tag of the bought protein
Briefly: ELISA: protein on FMC63-coated plate, Her2-Fc titrated, anti-hIgGFc-HRP.

The target in assay [6] is T1, CD20 on stable transfectant line …. Briefly: flow cytometry on 293-CD20 cells, 200 µl fusion protein, anti-His-PE.

B1: CD19-ECD-Leu16 scFv (VH/VL) (scFv)
chain: PEEPLVVKVEEGDNAVLQCLKGTSDGPTQQLTWSRESPLKPFLKLSLGLPGLGIHMRPLAIWLFIFNVSQQMGGFYLCQPGPPSEKAWQPGWTVNVEGSGELFRWNVSDLGGLGCGLKNRSSEGPSSPSGKLMSPKLYVWAKDRPEIWEGEPPCLPPRDSLNQSLSQDLTMAPGSTLWLSCGVPPDSVSRGPLSWTHVHPKGPKSLLSLELKDDRPARDMWVMETGLLLPRATAQDAGKYYCHRGNLTMSFHLEITARPVLWHWLLRTGGWKGGGGSGGGGSGGGGSGGGGSEVQLQQSGAELVKPGASVKMSCKASGYTFTSYNMHWVKQTPGQGLEWIGAIYPGNGDTSYNQKFKGKATLTADKSSSTAYMQLSSLTSEDSADYYCARSNYYGSSYWFFDVWGAGTTVTVSSGSTSGGGSGGGSGGGGSSDIVLTQSPAILSASPGEKVTMTCRASSSVNYMDWYQKKPGSSPKPWIYATSNLASGVPARFSGSGSGTSYSLTISRVEAEDAATYYCQQWSFNPPTFGGGTKLEIKHHHHHH
notes: C-terminal His tag; also called construct #63; #63
B1: the binding result in assay [1] was “binds”.

B2: CD19-D1+2-Leu16 scFv (VL/VH) (scFv)
chain: PEEPLVVKVEEGDNAVLQCLKGTSDGPTQQLTWSRESPLKPFLKLSLGLPGLGIHMRPLAIWLFIFNVSQQMGGFYLCQPGPPSEKAWQPGWTVNVEGSGELFRWNVSDLGGLGCGLKNRSSEGPSSPSGKLMSPKLYVWAKDRPEIWEGEPPCLPPRDSLNQSLSQDLTMAPGSTLWLSCGVPPDSVSRGPLSWTHVHPKGPKSLLSLELKDDRPARDMWVMETGLLLPRATAQDAGKYYCHRGNLTMSFHLEITARPGGGGSGGGGSGGGGSGGGGSDIELTQSPTILSASPGEKVTMTCRASSSVNYMDWYQKKPGSSPKPWIYATSNLASGVPARFSGSGSGTSYSLTISRVEAEDAATYYCQQWSFNPPTFGGGTKLEIKRGGGGSGGGGSGGGGSMAQVKLQESGAELVKPGASVKMSCKASGYTFTSYNMHWVKQTPGQGLEWIGAIYPGNGDTSYNQKFKGKATLTADKSSSTAYMQLSSLTSEDSADYYCARSNYYGSSYWFFDVWGQGTTVTVSSAAAHHHHHH
notes: C-terminal His tag; also called construct #85; #85
Take B2: the binding result in assay [2] is reported as “no binding (tested: 200 µl fusion protein)”.

B3: CD19-D1+2-C11D5.3 scFv (VL/VH) (scFv)
chain: PEEPLVVKVEEGDNAVLQCLKGTSDGPTQQLTWSRESPLKPFLKLSLGLPGLGIHMRPLAIWLFIFNVSQQMGGFYLCQPGPPSEKAWQPGWTVNVEGSGELFRWNVSDLGGLGCGLKNRSSEGPSSPSGKLMSPKLYVWAKDRPEIWEGEPPCLPPRDSLNQSLSQDLTMAPGSTLWLSCGVPPDSVSRGPLSWTHVHPKGPKSLLSLELKDDRPARDMWVMETGLLLPRATAQDAGKYYCHRGNLTMSFHLEITARPGGGGSGGGGSGGGGSGGGGSDIVLTQSPPSLAMSLGKRATISCRASESVTILGSHLIHWYQQKPGQPPTLLIQLASNVQTGVPARFSGSGSRTDFTLTIDPVEEDDVAVYYCLQSRTIPRTFGGGTKLEIKGSTSGSGKPGSGEGSTKGQIQLVQSGPELKKPGETVKISCKASGYTFTDYSINWVKRAPGKGLKWMGWINTETREPAYAYDFRGRFAFSLETSASTAYLQINNLKYEDTATYFCALDYSYAMDYWGQGTSVTVSSGGGGSGGGGSGGGGSHHHHHH
notes: His-tagged; also called construct #91; #91
For B3, the binding result in assay [3] is on record as “binds”.

B4: CD19-D1+2-Leu16 scFv (VH/VL) (scFv)
chain: PEEPLVVKVEEGDNAVLQCLKGTSDGPTQQLTWSRESPLKPFLKLSLGLPGLGIHMRPLAIWLFIFNVSQQMGGFYLCQPGPPSEKAWQPGWTVNVEGSGELFRWNVSDLGGLGCGLKNRSSEGPSSPSGKLMSPKLYVWAKDRPEIWEGEPPCLPPRDSLNQSLSQDLTMAPGSTLWLSCGVPPDSVSRGPLSWTHVHPKGPKSLLSLELKDDRPARDMWVMETGLLLPRATAQDAGKYYCHRGNLTMSFHLEITARPGGGGSGGGGSGGGGSGGGGSMAQVKLQESGAELVKPGASVKMSCKASGYTFTSYNMHWVKQTPGQGLEWIGAIYPGNGDTSYNQKFKGKATLTADKSSSTAYMQLSSLTSEDSADYYCARSNYYGSSYWFFDVWGQGTTVTVSSGGGGSGGGGSGGGGSDIELTQSPTILSASPGEKVTMTCRASSSVNYMDWYQKKPGSSPKPWIYATSNLASGVPARFSGSGSGTSYSLTISRVEAEDAATYYCQQWSFNPPTFGGGTKLEIKRAAAHHHHHH
notes: C-terminal His tag; also called construct #83; #83
Consider B4, for which, in assay [4], the binding result is on record as “binds”.

B5: purified CD19 protein control (other, UniProt P15391 20-291, looked up)
chain: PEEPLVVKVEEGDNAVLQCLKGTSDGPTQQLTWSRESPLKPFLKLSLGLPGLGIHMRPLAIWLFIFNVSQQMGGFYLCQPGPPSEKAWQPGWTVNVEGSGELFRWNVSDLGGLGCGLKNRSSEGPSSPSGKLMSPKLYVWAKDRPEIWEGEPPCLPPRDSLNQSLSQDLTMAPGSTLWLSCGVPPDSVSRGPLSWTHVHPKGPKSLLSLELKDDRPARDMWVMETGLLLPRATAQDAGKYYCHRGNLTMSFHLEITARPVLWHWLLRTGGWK
Consider B5, for which, in assay [5], the binding result was “no binding”.

B6: CD22-D123-Leu16 scFv (VH/VL) (scFv)
chain: DSSKWVFEHPETLYAWEGACVWIPCTYRALDGDLESFILFHNPEYNKNTSKFDGTRLYESTKDGKVPSEQKRVQFLGDKNKACTLSIHPVHLNDSGQLGLRMESKTEKWMERIHLNVSERPFPPHIQLPPEIQESQEVTLTCLLNFSCYGYPIQLQWLLEGVPMRQAAVTSTSLTIKSVFTRSELKFSPQWSHHGKIVTCQLQDADGKFLSNDTVQLNVKHTPKLEIKVTPSDAIVREGDSVTMTCEVSSSNPEYTTVSWLKDGTSLKKQNTFTLNLREVTKDQSGKYCCQVSNDVGPGRSEEVFLQVQYAPEGGGGSGGGGSGGGGSGGGGSEVQLQQSGAELVKPGASVKMSCKASGYTFTSYNMHWVKQTPGQGLEWIGAIYPGNGDTSYNQKFKGKATLTADKSSSTAYMQLSSLTSEDSADYYCARSNYYGSSYWFFDVWGAGTTVTVSSGSTSGGGSGGGSGGGGSSDIVLTQSPAILSASPGEKVTMTCRASSSVNYMDWYQKKPGSSPKPWIYATSNLASGVPARFSGSGSGTSYSLTISRVEAEDAATYYCQQWSFNPPTFGGGTKLEIKHHHHHH
notes: First three domains of CD22 (further mutated) fused to Leu16 scFv, C-terminal His tag; also called construct #65; #65
B6: the binding result in assay [6] is “binds”.

B7: CD19-D1+2-C11D5.3 scFv (VH/VL) (scFv)
chain: PEEPLVVKVEEGDNAVLQCLKGTSDGPTQQLTWSRESPLKPFLKLSLGLPGLGIHMRPLAIWLFIFNVSQQMGGFYLCQPGPPSEKAWQPGWTVNVEGSGELFRWNVSDLGGLGCGLKNRSSEGPSSPSGKLMSPKLYVWAKDRPEIWEGEPPCLPPRDSLNQSLSQDLTMAPGSTLWLSCGVPPDSVSRGPLSWTHVHPKGPKSLLSLELKDDRPARDMWVMETGLLLPRATAQDAGKYYCHRGNLTMSFHLEITARPGGGGSGGGGSGGGGSGGGGSQIQLVQSGPELKKPGETVKISCKASGYTFTDYSINWVKRAPGKGLKWMGWINTETREPAYAYDFRGRFAFSLETSASTAYLQINNLKYEDTATYFCALDYSYAMDYWGQGTSVTVSSGSTSGSGKPGSGEGSTKGDIVLTQSPPSLAMSLGKRATISCRASESVTILGSHLIHWYQQKPGQPPTLLIQLASNVQTGVPARFSGSGSRTDFTLTIDPVEEDDVAVYYCLQSRTIPRTFGGGTKLEIKGGGGSGGGGSGGGGSHHHHHH
notes: His-tagged; also called construct #92; #92
Turning to B7, in assay [3], the binding result is listed as “binds”.

B8: C11D5.3 scFv (VH/VL) (scFv)
scFv: QIQLVQSGPELKKPGETVKISCKASGYTFTDYSINWVKRAPGKGLKWMGWINTETREPAYAYDFRGRFAFSLETSASTAYLQINNLKYEDTATYFCALDYSYAMDYWGQGTSVTVSSGSTSGSGKPGSGEGSTKGDIVLTQSPPSLAMSLGKRATISCRASESVTILGSHLIHWYQQKPGQPPTLLIQLASNVQTGVPARFSGSGSRTDFTLTIDPVEEDDVAVYYCLQSRTIPRTFGGGTKLEIKGGGGSGGGGSGGGGSHHHHHH
notes: His-tagged; also called construct #90; #90
Take B8: in assay [3], the binding result is reported as “binds”.

B9: C11D5.3 scFv (VL/VH) (scFv)
scFv: DIVLTQSPPSLAMSLGKRATISCRASESVTILGSHLIHWYQQKPGQPPTLLIQLASNVQTGVPARFSGSGSRTDFTLTIDPVEEDDVAVYYCLQSRTIPRTFGGGTKLEIKGSTSGSGKPGSGEGSTKGQIQLVQSGPELKKPGETVKISCKASGYTFTDYSINWVKRAPGKGLKWMGWINTETREPAYAYDFRGRFAFSLETSASTAYLQINNLKYEDTATYFCALDYSYAMDYWGQGTSVTVSSGGGGSGGGGSGGGGSHHHHHH
notes: His-tagged; also called construct #89; #89
For B9, in assay [3], the binding result was “binds”.
